Source: US20200207857A1
Numbering of substitutions follows the chain as printed.

B1: Anti-CLDN 18.2-5C9 (antibody, V domains shown)
VH: VKLQESGPELKKPGETVKISCKASGYTFTNYGMNWVKQAPGKGLKWMGWINMYTGEPTYADDFKGRFAFSLETSASTAYLQINNLKNEDTATYFCSRLYNGNSLDYWGQGTSLTVSS
VL: DILLTQSPLSLTVTAGEKVTMSCKSSQSLLNSGNQKSYLTWYQQKPGQPPKLLLYWASTRESGVPARFTGSGSGTDFSLTISSVQTEDLAVYYCQNAYSFPFTFGSGTKLEIN
B2: 5G7 (antibody, V domains shown)
VH: KVQLQESGPELVRPGTSVKVSCKASKYAFTNYLIEWIKQRPGQGLEWIGMINPGSDGSHYNEKFKGKATLTADKSSSTAYMQLSSLTSDDSAVYFCARVGYGNSFAYWGQGTLVTVSA
VL: MTQDELSLTVTAGEKVTLSCKSSQSLLNSGNQRNYLTWYQQKKGQPPKLLIYWASTRESGVPDRLTGSGSGTDFTLTISGVQAEDLAVYYCQNAYYYPFTFGSGTKLEIK
B3: 14B7 (antibody, V domains shown)
VH: KVKLQESGPELVKPGASVKIPCKASGYTFTDYKMDWVKQSHGKSLEWIGDINPNNGGTIYNQKFKGKATLTVDRSSSTAYMELRSLTSEDTAVYYCARSYYGNSLAYWGQGTLVTVSA
VL: DIVMTQDELSLTVTAGEKVTMSCKSSQSLLNSGNQKNYLTWYQQKPGLPPKLLIYWASTRESGVPDRFTGSGSGTDFTLTISSVQAEDLAVYYCQNNYIYPLTFGAGTKLELK
B4: h5C9o Fc mutation (antibody, V domains shown)
VH: EVQLVESGGGLVQPGGSLRLSCAVSGYTFSMNWVRQAPGKGLEWVAWINMYTGEPTYADDFKGRFTISRDDSKNTLYLQMNSLRAEDTAVYYCARLYNGNSLDYWGQGTLVTVSS
VL: DIQMTQSPSSLSASVGDRVTITCKSSQSLLNSGNQKSYLTWYQQKPGKAPKLLIYWASTLESGVPSRFSGSGSGTDYTLTISSLQPEDFATYYCQNAYSFPFTFGQGTKVEIKR
B5: humanized anti-Claudin 18.2 antibody h5C9oao (antibody, human IgG1, kappa, V domains shown)
VH: B4 VH with Y97A, N98R, L102M
VL: B4 VL with S99F
B6: Anti-CLDN 18.2-5C9ob (humanized antibody h5C9ob) (antibody, human IgG1, V domains shown)
VH: B4 VH
VL: DIQMTQSPSSLSASVGDRVTITCKSSQSLLNSGNQKSYLTWYQQKPGKAPKLLIYWASTLESGVPSRFSGSGSGTDYTLTISSLQPEDFATYYCQNAYFFPFTFGQGTKVEIK
B7: Anti-CLDN 18.2-5C9oae (humanized antibody h5C9oae) (antibody, human IgG1, V domains shown)
VH: B4 VH with N98R
VL: B6 VL
B8: h5C9oj (antibody, V domains shown)
VH: B4 VH with S101A
VL: B6 VL
B9: h5C9og (antibody, V domains shown)
VH: B4 VH with N98R
VL: B6 VL with A97S, F99S
B10: h5C9od (antibody, V domains shown)
VH: B4 VH
VL: B6 VL with F99W
B11: h5C9oi (antibody, V domains shown)
VH: B4 VH with L96M
VL: B6 VL with A97S, F99S
B12: h5C9oe (antibody, V domains shown)
VH: B4 VH
VL: B6 VL with F99R
B13: h5C9oh (antibody, V domains shown)
VH: B4 VH with N98R
VL: B6 VL with F99E
B14: h5C9of (antibody, V domains shown)
VH: B4 VH
VL: B6 VL with A97S, F99S
B15: h5C9oc (antibody, V domains shown)
VH: B4 VH
VL: B6 VL with A97G, F99S
B16: h5C9oa (antibody, V domains shown)
VH: B4 VH
VL: B6 VL with F99A
B17: humanized anti-Claudin 18.2 antibody h5C9oan (antibody, human IgG1, kappa, V domains shown)
VH: B4 VH with L96S, Y97S, N98R, S101G, L102F
VL: B4 VL with S99F
B18: h5C9oab (antibody, V domains shown)
VH: B4 VH
VL: B6 VL with F99Y
B19: h5C9oad (antibody, V domains shown)
VH: B4 VH with N98R
VL: B6 VL with F99Y
B20: h5C9oal (antibody, human IgG1, kappa, V domains shown)
VH: B4 VH with Y97A, N98R, L102M
VL: B4 VL with S99Y
B21: h5C9oaj (antibody, human IgG1, kappa, V domains shown)
VH: B4 VH with Y97A, N98R, L102I
VL: B4 VL with S99Y
B22: h5C9oak (antibody, human IgG1, kappa, V domains shown)
VH: B4 VH with L96S, Y97S, N98R, S101G, L102F
VL: B4 VL with S99Y
B23: h5C9oaf (antibody, V domains shown)
VH: B4 VH with Y97F
VL: B4 VL with S99Y
B24: h5C9oam (antibody, human IgG1, kappa, V domains shown)
VH: B4 VH with Y97A, N98R, L102I
VL: B4 VL with S99F
B25: Anti-CLDN 18.2-5C9oai (humanized antibody h5C9oai) (antibody, human IgG1, V domains shown)
VH: B4 VH with Y97A, N98R, L102M
VL: B6 VL with F99S
B26: h5C9oah (antibody, V domains shown)
VH: B4 VH with L96S, Y97S, N98R, S101G, L102F
VL: B6 VL with F99S
B27: Anti-CLDN 18.2-5C9oag (humanized antibody h5C9oag) (antibody, human IgG1, V domains shown)
VH: B4 VH with Y97A, N98R, L102I
VL: B6 VL with F99S
B28: chimeric anti-CLDN 18.2 antibody ch9A1 (antibody, human IgG1, kappa, V domains shown)
VH: B2 VH with K1E, E6Q, P9A, K26R, I37V, D56G, S58T, G66V, V99G, Y101F
VL: DILLTQSPLSLTVTAGEKVTMSCKSSQSLLNGGNLKNYLTWYQQKPGQPPKLLTYWASTRESGVPVRFTGSGSGTDFTLTISSVQAEDLAVYYCQNGYFYPYTFGGGTKLEIKR
B29: chimeric anti-CLDN 18.2 antibody ch5C9 (antibody, human IgG1, kappa, V domains shown)
VH: EVKLQESGPELKKPGETVKISCKASGYTFTNYGMNWVKQAPGKGLKWMGWINMYTGEPTYADDFKGRFAFSLETSASTAYLQINNLKNEDTATYFCSRLYNGNSLDYWGQGTSLTVSS
VL: DILLTQSPLSLTVTAGEKVTMSCKSSQSLLNSGNQKSYLTWYQQKPGQPPKLLLYWASTRESGVPARFTGSGSGTDFSLTISSVQTEDLAVYYCQNAYSFPFTFGSGTKLEINR
B30: chimeric anti-CLDN 18.2 antibody ch15G11 (antibody, V domains shown)
VH: EVQLQESGGGLVQPGGSRKLSCAASGFSFSSFGMHWVRQAPEKGLEWVAFISSGSSPIYYADTVKGRFTVSRDNPKNTLFLQMTSLRSEDTAMYFCARNYYGNAMDYWGQGSSVTVSS
VL: DIMMTQSPLSLTVTAGEKVTMNCKSSQSLLNGGNQKNYLAWYQQKPGQPPKLLIYWASTRESGVPARFTGSGSGTDFTLTINTVQAEDLAVYYCQNDYFYPLTFGTGTKLELKR

molecular target: human Claudin 18.1 (CLDN 18.1) expressed on HEK293 cells (human) (UniProt P56856); test: flow cytometry, 293T-CLDN18.1 cells, FL1-A histogram, gate P1; untransfected 293T: M1 0.1%
Sequence (P56856 whole entry): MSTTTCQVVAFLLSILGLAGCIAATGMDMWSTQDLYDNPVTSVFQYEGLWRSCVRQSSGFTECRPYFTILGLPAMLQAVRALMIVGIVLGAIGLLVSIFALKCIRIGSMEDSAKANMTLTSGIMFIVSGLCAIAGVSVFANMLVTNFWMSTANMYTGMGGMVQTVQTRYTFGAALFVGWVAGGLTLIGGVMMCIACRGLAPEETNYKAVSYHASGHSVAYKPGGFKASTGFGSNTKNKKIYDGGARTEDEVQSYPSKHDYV

% of cells in gate M1	Binder
0.7%	B1

molecular target: Recombinant protein Claudin 18.2; test: ELISA as in Example 1, recombinant Claudin 18.2 coated on the plate, OD450, linear axis in ng/ml
Sequence (chain, as listed by the source limits assumed, form in doubt): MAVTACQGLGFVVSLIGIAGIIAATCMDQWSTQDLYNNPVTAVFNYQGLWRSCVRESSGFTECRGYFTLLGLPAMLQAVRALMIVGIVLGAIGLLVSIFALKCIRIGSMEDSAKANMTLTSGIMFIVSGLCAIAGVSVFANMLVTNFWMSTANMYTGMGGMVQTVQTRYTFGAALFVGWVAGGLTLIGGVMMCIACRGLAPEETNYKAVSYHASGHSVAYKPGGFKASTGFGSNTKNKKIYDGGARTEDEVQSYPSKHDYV

EC50 (read off the curve)	Binder
0.05 µg/mL	B1

molecular target: Recombinant protein Claudin 18.2; test: ELISA on plate-coated recombinant Claudin 18.2, OD370; Kd table under the graph, no unit in the table, unit from the x axis log[antibody] nM

Kd	Binder
0.293 nM	B2
0.0699 nM	B1
0.2 nM	B3

molecular target: Recombinant protein Claudin 18.2; test: ELISA on plate-coated recombinant Claudin 18.2, OD450; Kd table under the graph, no unit in the table, unit from the x axis log[antibody] nM

Kd	Binder
0.114 nM	B4
0.134 nM	B5
0.129 nM	B6
0.14 nM	B7

molecular target: Recombinant protein Claudin 18.2; test: as above; remark: another data set of the same source

Kd	Binder
0.0777 nM	B8
0.0884 nM	B9
0.0876 nM	B10
0.0868 nM	B11
0.0878 nM	B12
0.0863 nM	B6
0.0802 nM	B13
0.103 nM	B14
0.0848 nM	B15
0.0894 nM	B16

molecular target: Recombinant protein Claudin 18.2; test: ELISA-based assay on Claudin 18.2, y axis RLU; Kd table under the graph, no unit in the table, unit from the x axis log[antibody] nM

Kd	Binder
0.162 nM	B4
0.102 nM	B5
0.12 nM	B17
0.13 nM	B6
0.109 nM	B7

molecular target: Recombinant protein Claudin 18.2; test: as above; remark: another data set of the same source

Kd	Binder
0.164 nM	B18
0.175 nM	B19
0.198 nM	B20
0.173 nM	B21
0.161 nM	B22
0.16 nM	B6
0.162 nM	B23
0.172 nM	B24

molecular target: Recombinant protein Claudin 18.2; test: as above; remark: another data set of the same source

Kd	Binder
0.276 nM	B8
0.196 nM	B25
0.316 nM	B11
0.213 nM	B6
0.236 nM	B26
0.196 nM	B27
0.201 nM	B13
0.183 nM	B7

molecular target: Recombinant protein Claudin 18.2; test: ELISA, recombinant Claudin 18.2 coated at 4.5 ug/mL (Example 67), OD370; Kd table under the graph, no unit in the table, unit from the x axis log[antibody] nM

Kd	Binder
0.101 nM	B28
0.0988 nM	B29
0.0939 nM	B30
